Publication PMC6177252, “Transcription factors Rv0081 and Rv3334 connect the early and the enduring hypoxic response of Mycobacterium tuberculosis”

T1: Rv0081 (Mycobacterium tuberculosis H37Rv, UniProt P9WMI7 1-114)
T1 sequence: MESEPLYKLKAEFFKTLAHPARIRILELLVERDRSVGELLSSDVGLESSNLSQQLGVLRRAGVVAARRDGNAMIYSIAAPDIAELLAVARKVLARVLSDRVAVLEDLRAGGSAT

B1: Fragment a (-54 to -25) (dsDNA)
DNA 1: CACATGTACCCAGTGTTAACCTTCTAGTGC
DNA 2: GCACTAGAAGGTTAACACTGGGTACATGTG
B2: Fragment 5 (-40 to -10) (dsDNA)
DNA 1: GTTAACCTTCTAGTGCACTAGAAGGTCAAG
DNA 2: CTTGACCTTCTAGTGCACTAGAAGGTTAAC
B3: Fragment 6 (-73 to -40) (dsDNA)
DNA 1: CGCCCGCACTGCTGGCGGCTCACATGTACCCAGT
DNA 2: ACTGGGTACATGTGAGCCGCCAGCAGTGCGGGCG
B4: Fragment 1 (-53 to 0) (dsDNA)
DNA 1: CACATGTACCCAGTGTTAACCTTCTAGTGCACTAGAAGGTCAAGGGGAGTCGC
DNA 2: GCGACTCCCCTTGACCTTCTAGTGCACTAGAAGGTTAACACTGGGTACATGTG
B5: FAM-Fragment 1 (dsDNA)
DNA 1: B4 DNA 1
DNA 2: B4 DNA 2
B6: Fragment b (-54 to -17) (dsDNA)
DNA 1: CACATGTACCCAGTGTTAACCTTCTAGTGCACTAGAAG
DNA 2: CTTCTAGTGCACTAGAAGGTTAACACTGGGTACATGTG
B7: Fragment 4 (-203 to -154) (dsDNA)
DNA 1: GGATGGTCATAGTGGCGTCGGGCGCCAGGCCTGCGCGGGCACACGCGGTGCGG
DNA 2: CCGCACCGCGTGTGCCCGCGCAGGCCTGGCGCCCGACGCCACTATGACCATCC
B8: FAM-Fragment 3 (dsDNA)
DNA 1: TGTCGATGGTTGTTCTCATCTGGTAACTCCTTTCCGCAGGCCGCAATTCAGCG
DNA 2: CGCTGAATTGCGGCCTGCGGAAAGGAGTTACCAGATGAGAACAACCATCGACA
B9: Fragment 3 (-153 to -104) (dsDNA)
DNA 1: B8 DNA 1
DNA 2: B8 DNA 2
B10: Fragment 2 (-103 to -54) (dsDNA)
DNA 1: GTATGGGCTCACCGAGATCAGGCTCGTCACGATCGCCCGCACTGCTGGCGGCT
DNA 2: AGCCGCCAGCAGTGCGGGCGATCGTGACGAGCCTGATCTCGGTGAGCCCATAC
B11: Fragment c (-54 to -9) (dsDNA)
DNA 1: CACATGTACCCAGTGTTAACCTTCTAGTGCACTAGAAGGTCAAGGG
DNA 2: CCCTTGACCTTCTAGTGCACTAGAAGGTTAACACTGGGTACATGTG

Key:
Rv0081 [1] = target: T1, Rv0081; test: EMSA; 576 ng Rv0081; conditions: protein: recombinant; tags: His-tag (pET28b); chain copies: 2; blunt
Rv0081 [2] = target: T1, Rv0081; test: EMSA; 288-576 ng Rv0081; conditions: protein: recombinant; tags: His-tag (pET28b); chain copies: 2; blunt
Rv0081 [3] = target: T1, Rv0081; test: EMSA; conditions: protein: recombinant; tags: His-tag (pET28b); chain copies: 2; label: FAM; blunt

Row | Binder | binding result (Rv0081 [1]) | further results
1 | B1 | no binding | –
2 | B2 | – | binding result (Rv0081 [2]): no binding
3 | B3 | – | binding result (Rv0081 [2]): no binding
4 | B4 | binds | –
5 | B5 | – | binding result (Rv0081 [3]): binds
6 | B6 | no binding | –
7 | B7 | no binding | –
8 | B8 | – | binding result (Rv0081 [3]): binds
9 | B9 | binds | –
10 | B10 | no binding | –
11 | B11 | no binding | –
